{"source": "the supplement of paper PMC9112550", "about": "“Optimization of the antimicrobial peptide Bac7 by deep mutational scanning” (BMC Biology, 2022);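 further: peptides expressed intracellularly from a pBAD plasmid library in pooled LB shake-flask culture, induced with 0.3% L-arabinose, DNA abundance read by NGS, three biological replicates, DESeq2 with apeglm shrinkage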"}
{"system": "Escherichia coli TOP10", "assay": "shrunken log2 fold change of peptide-encoding DNA abundance (4.5 h post-induction vs induction); higher = less antimicrobial activity (less host growth inhibition)", "conditions": "time post-induction: 4.5 h; library: site-saturation at positions 5, 18, 19, 20"}
{"sequence": "RRIRHRPPRLPRPRPRPNCHPRP", "shrunken log2 fold change": -0.444}
{"sequence": "RRIRHRPPRLPRPRPRPRELPRP", "shrunken log2 fold change": 0.234}
{"sequence": "RRIRSRPPRLPRPRPRPDWCPRP", "shrunken log2 fold change": 0.224}
{"sequence": "RRIRERPPRLPRPRPRPHWSPRP", "shrunken log2 fold change": -0.71}
{"sequence": "RRIRLRPPRLPRPRPRPMYCPRP", "shrunken log2 fold change": -0.0105}
{"sequence": "RRIRGRPPRLPRPRPRPASWPRP", "shrunken log2 fold change": 2.63}
{"sequence": "RRIRKRPPRLPRPRPRPKYCPRP", "shrunken log2 fold change": -0.632}
{"sequence": "RRIRSRPPRLPRPRPRPSRRPRP", "shrunken log2 fold change": 0.208}
{"sequence": "RRIRRRPPRLPRPRPRPKKEPRP", "shrunken log2 fold change": -0.0417}
{"sequence": "RRIRQRPPRLPRPRPRPMWSPRP", "shrunken log2 fold change": 0.0215}
{"sequence": "RRIRARPPRLPRPRPRPQLDPRP", "shrunken log2 fold change": 0.654}
{"sequence": "RRIRNRPPRLPRPRPRPAHDPRP", "shrunken log2 fold change": 0.055}
{"sequence": "RRIRNRPPRLPRPRPRPIFQPRP", "shrunken log2 fold change": -0.0287}
{"sequence": "RRIRIRPPRLPRPRPRPSMKPRP", "shrunken log2 fold change": -0.56}
{"sequence": "RRIRYRPPRLPRPRPRPPIFPRP", "shrunken log2 fold change": -0.381}
{"sequence": "RRIRERPPRLPRPRPRPVEPPRP", "shrunken log2 fold change": 0.0248}
{"sequence": "RRIRQRPPRLPRPRPRPGWHPRP", "shrunken log2 fold change": 0.0202}
{"sequence": "RRIRIRPPRLPRPRPRPNYFPRP", "shrunken log2 fold change": -0.749}
{"sequence": "RRIRGRPPRLPRPRPRPRQEPRP", "shrunken log2 fold change": 0.527}
{"sequence": "RRIRCRPPRLPRPRPRPMANPRP", "shrunken log2 fold change": 0.0226}
{"sequence": "RRIRQRPPRLPRPRPRPDFHPRP", "shrunken log2 fold change": 0.0254}
{"sequence": "RRIRARPPRLPRPRPRPYFGPRP", "shrunken log2 fold change": -0.327}
{"sequence": "RRIRPRPPRLPRPRPRPLTFPRP", "shrunken log2 fold change": -0.113}
{"sequence": "RRIRARPPRLPRPRPRPHSAPRP", "shrunken log2 fold change": -0.0202}
{"sequence": "RRIRSRPPRLPRPRPRPEVVPRP", "shrunken log2 fold change": 0.471}
{"sequence": "RRIRDRPPRLPRPRPRPHWGPRP", "shrunken log2 fold change": 0.00196}
{"sequence": "RRIRERPPRLPRPRPRPSPQPRP", "shrunken log2 fold change": -0.0688}
{"sequence": "RRIRERPPRLPRPRPRPVERPRP", "shrunken log2 fold change": -0.00844}
{"sequence": "RRIRQRPPRLPRPRPRPHKMPRP", "shrunken log2 fold change": 0.246}
{"sequence": "RRIRQRPPRLPRPRPRPGNFPRP", "shrunken log2 fold change": 0.0262}
{"sequence": "RRIRLRPPRLPRPRPRPHADPRP", "shrunken log2 fold change": -0.299}
{"sequence": "RRIRKRPPRLPRPRPRPGQFPRP", "shrunken log2 fold change": 0.00171}
{"sequence": "RRIRMRPPRLPRPRPRPPDKPRP", "shrunken log2 fold change": 1.03}
{"sequence": "RRIRGRPPRLPRPRPRPFSQPRP", "shrunken log2 fold change": 0.194}
{"sequence": "RRIRYRPPRLPRPRPRPQQHPRP", "shrunken log2 fold change": -0.278}
{"sequence": "RRIRPRPPRLPRPRPRPYWVPRP", "shrunken log2 fold change": -0.284}
{"sequence": "RRIRARPPRLPRPRPRPGCPPRP", "shrunken log2 fold change": 0.343}
{"sequence": "RRIRKRPPRLPRPRPRPYNAPRP", "shrunken log2 fold change": -0.171}
{"sequence": "RRIRWRPPRLPRPRPRPWCHPRP", "shrunken log2 fold change": -0.422}
{"sequence": "RRIRERPPRLPRPRPRPNHEPRP", "shrunken log2 fold change": 0.0522}
{"sequence": "RRIRKRPPRLPRPRPRPNWSPRP", "shrunken log2 fold change": 0.139}
{"sequence": "RRIRTRPPRLPRPRPRPGFVPRP", "shrunken log2 fold change": -0.0603}
{"sequence": "RRIRARPPRLPRPRPRPPRTPRP", "shrunken log2 fold change": 1.12}
{"sequence": "RRIRDRPPRLPRPRPRPEWQPRP", "shrunken log2 fold change": 0.0508}
{"sequence": "RRIRPRPPRLPRPRPRPHYSPRP", "shrunken log2 fold change": -0.167}
{"sequence": "RRIRRRPPRLPRPRPRPTDPPRP", "shrunken log2 fold change": 0.246}
{"sequence": "RRIRDRPPRLPRPRPRPYAPPRP", "shrunken log2 fold change": -0.477}
{"sequence": "RRIRFRPPRLPRPRPRPGVFPRP", "shrunken log2 fold change": -0.227}
{"sequence": "RRIRWRPPRLPRPRPRPIYSPRP", "shrunken log2 fold change": -0.0292}
{"sequence": "RRIRHRPPRLPRPRPRPPMRPRP", "shrunken log2 fold change": 0.747}
{"sequence": "RRIRGRPPRLPRPRPRPRVCPRP", "shrunken log2 fold change": 1.1}
{"sequence": "RRIRLRPPRLPRPRPRPETEPRP", "shrunken log2 fold change": 0.0833}
{"sequence": "RRIRTRPPRLPRPRPRPRPSPRP", "shrunken log2 fold change": 0.703}
{"sequence": "RRIRVRPPRLPRPRPRPICYPRP", "shrunken log2 fold change": 0.19}
{"sequence": "RRIRFRPPRLPRPRPRPRGNPRP", "shrunken log2 fold change": -0.0828}
{"sequence": "RRIRLRPPRLPRPRPRPGEMPRP", "shrunken log2 fold change": 0.0594}
{"sequence": "RRIRWRPPRLPRPRPRPGCTPRP", "shrunken log2 fold change": 0.194}
{"sequence": "RRIRARPPRLPRPRPRPPTPPRP", "shrunken log2 fold change": 1.33}
{"sequence": "RRIRFRPPRLPRPRPRPVFVPRP", "shrunken log2 fold change": -0.277}
{"sequence": "RRIRARPPRLPRPRPRPHEVPRP", "shrunken log2 fold change": 0.101}
{"sequence": "RRIRSRPPRLPRPRPRPKYAPRP", "shrunken log2 fold change": -0.323}
{"sequence": "RRIRIRPPRLPRPRPRPKRSPRP", "shrunken log2 fold change": -0.335}
{"sequence": "RRIRWRPPRLPRPRPRPIVSPRP", "shrunken log2 fold change": -0.000687}
{"sequence": "RRIRNRPPRLPRPRPRPQNAPRP", "shrunken log2 fold change": -0.011}
{"sequence": "RRIRCRPPRLPRPRPRPMSQPRP", "shrunken log2 fold change": -0.0148}
{"sequence": "RRIRARPPRLPRPRPRPLSMPRP", "shrunken log2 fold change": -0.129}
{"sequence": "RRIRWRPPRLPRPRPRPCQPPRP", "shrunken log2 fold change": -0.118}
{"sequence": "RRIRHRPPRLPRPRPRPPRQPRP", "shrunken log2 fold change": 0.108}
{"sequence": "RRIRMRPPRLPRPRPRPGAWPRP", "shrunken log2 fold change": 0.122}
{"sequence": "RRIRWRPPRLPRPRPRPRQHPRP", "shrunken log2 fold change": 0.251}
{"sequence": "RRIRTRPPRLPRPRPRPANYPRP", "shrunken log2 fold change": -0.145}
{"sequence": "RRIRARPPRLPRPRPRPMIFPRP", "shrunken log2 fold change": 0.292}
{"sequence": "RRIRGRPPRLPRPRPRPHNFPRP", "shrunken log2 fold change": 0.0511}
{"sequence": "RRIRGRPPRLPRPRPRPWWNPRP", "shrunken log2 fold change": -0.148}
{"sequence": "RRIRGRPPRLPRPRPRPIAFPRP", "shrunken log2 fold change": 0.8}
{"sequence": "RRIRRRPPRLPRPRPRPRRHPRP", "shrunken log2 fold change": 0.218}
{"sequence": "RRIRSRPPRLPRPRPRPCVDPRP", "shrunken log2 fold change": 0.00587}
{"sequence": "RRIRWRPPRLPRPRPRPGWQPRP", "shrunken log2 fold change": 0.0857}
{"sequence": "RRIRQRPPRLPRPRPRPRFTPRP", "shrunken log2 fold change": 0.184}
{"sequence": "RRIRVRPPRLPRPRPRPHCYPRP", "shrunken log2 fold change": -0.234}
{"sequence": "RRIRRRPPRLPRPRPRPAHCPRP", "shrunken log2 fold change": 0.804}
{"sequence": "RRIRLRPPRLPRPRPRPYCYPRP", "shrunken log2 fold change": -0.238}
{"sequence": "RRIRVRPPRLPRPRPRPWNIPRP", "shrunken log2 fold change": -0.582}
{"sequence": "RRIRWRPPRLPRPRPRPPKKPRP", "shrunken log2 fold change": 1.27}
{"sequence": "RRIRERPPRLPRPRPRPMVQPRP", "shrunken log2 fold change": 0.00276}
{"sequence": "RRIRLRPPRLPRPRPRPFQPPRP", "shrunken log2 fold change": 0.113}
{"sequence": "RRIRDRPPRLPRPRPRPMVEPRP", "shrunken log2 fold change": 0.465}
{"sequence": "RRIRIRPPRLPRPRPRPPMNPRP", "shrunken log2 fold change": -0.368}
{"sequence": "RRIRARPPRLPRPRPRPACCPRP", "shrunken log2 fold change": 0.658}
{"sequence": "RRIRIRPPRLPRPRPRPSCRPRP", "shrunken log2 fold change": -0.644}
{"sequence": "RRIRMRPPRLPRPRPRPGPEPRP", "shrunken log2 fold change": 0.797}
{"sequence": "RRIRPRPPRLPRPRPRPMGQPRP", "shrunken log2 fold change": 0.0687}
{"sequence": "RRIRGRPPRLPRPRPRPPHRPRP", "shrunken log2 fold change": 0.81}
{"sequence": "RRIRQRPPRLPRPRPRPRYFPRP", "shrunken log2 fold change": -0.247}
{"sequence": "RRIRFRPPRLPRPRPRPATRPRP", "shrunken log2 fold change": 0.193}
{"sequence": "RRIRYRPPRLPRPRPRPMAIPRP", "shrunken log2 fold change": -0.0433}
{"sequence": "RRIRWRPPRLPRPRPRPLKKPRP", "shrunken log2 fold change": 0.0518}
{"sequence": "RRIRCRPPRLPRPRPRPPSIPRP", "shrunken log2 fold change": 0.0499}
{"sequence": "RRIRVRPPRLPRPRPRPHAEPRP", "shrunken log2 fold change": 0.0163}
{"sequence": "RRIRRRPPRLPRPRPRPLGYPRP", "shrunken log2 fold change": 0.26}
{"sequence": "RRIRDRPPRLPRPRPRPREQPRP", "shrunken log2 fold change": 1.36}
{"sequence": "RRIRHRPPRLPRPRPRPPQVPRP", "shrunken log2 fold change": -0.0255}
{"sequence": "RRIRTRPPRLPRPRPRPYIPPRP", "shrunken log2 fold change": -0.462}
{"sequence": "RRIRQRPPRLPRPRPRPPLKPRP", "shrunken log2 fold change": -0.0174}
{"sequence": "RRIRLRPPRLPRPRPRPMLSPRP", "shrunken log2 fold change": 0.0192}
{"sequence": "RRIRQRPPRLPRPRPRPYTWPRP", "shrunken log2 fold change": -0.51}
{"sequence": "RRIRRRPPRLPRPRPRPETLPRP", "shrunken log2 fold change": 0.0675}
{"sequence": "RRIRSRPPRLPRPRPRPAGNPRP", "shrunken log2 fold change": -0.0422}
{"sequence": "RRIRTRPPRLPRPRPRPPIIPRP", "shrunken log2 fold change": 0.0882}
{"sequence": "RRIRWRPPRLPRPRPRPKSDPRP", "shrunken log2 fold change": 0.473}
{"sequence": "RRIRRRPPRLPRPRPRPCMPPRP", "shrunken log2 fold change": -0.301}
{"sequence": "RRIRLRPPRLPRPRPRPFIWPRP", "shrunken log2 fold change": 0.112}
{"sequence": "RRIRDRPPRLPRPRPRPCCEPRP", "shrunken log2 fold change": 0.961}
{"sequence": "RRIRARPPRLPRPRPRPHQYPRP", "shrunken log2 fold change": -0.278}
{"sequence": "RRIRDRPPRLPRPRPRPITMPRP", "shrunken log2 fold change": 0.111}
{"sequence": "RRIRMRPPRLPRPRPRPALDPRP", "shrunken log2 fold change": 0.94}
{"sequence": "RRIRWRPPRLPRPRPRPTFYPRP", "shrunken log2 fold change": -0.298}
{"sequence": "RRIRVRPPRLPRPRPRPLSMPRP", "shrunken log2 fold change": -0.0717}
{"sequence": "RRIRYRPPRLPRPRPRPWLGPRP", "shrunken log2 fold change": -0.0293}
{"sequence": "RRIRLRPPRLPRPRPRPQCKPRP", "shrunken log2 fold change": -0.425}
{"sequence": "RRIRVRPPRLPRPRPRPKPGPRP", "shrunken log2 fold change": 0.507}
{"sequence": "RRIRKRPPRLPRPRPRPTKCPRP", "shrunken log2 fold change": -0.184}
{"sequence": "RRIRFRPPRLPRPRPRPHEKPRP", "shrunken log2 fold change": -0.0136}
{"sequence": "RRIRQRPPRLPRPRPRPLNVPRP", "shrunken log2 fold change": -0.0218}
{"sequence": "RRIRERPPRLPRPRPRPLVTPRP", "shrunken log2 fold change": 0.503}
